Assay results reported in US20090239800A1 (GEORGIA TECH RESEARCH CORPORARION, published 2009).
No end group written: not given here.

Assays:
rabbit ClC-2 [1] = target: T1, rabbit ClC-2 (rabbit, UniProt P51789 1-898); assay: cell-based or functional assay
T1 sequence (looked up): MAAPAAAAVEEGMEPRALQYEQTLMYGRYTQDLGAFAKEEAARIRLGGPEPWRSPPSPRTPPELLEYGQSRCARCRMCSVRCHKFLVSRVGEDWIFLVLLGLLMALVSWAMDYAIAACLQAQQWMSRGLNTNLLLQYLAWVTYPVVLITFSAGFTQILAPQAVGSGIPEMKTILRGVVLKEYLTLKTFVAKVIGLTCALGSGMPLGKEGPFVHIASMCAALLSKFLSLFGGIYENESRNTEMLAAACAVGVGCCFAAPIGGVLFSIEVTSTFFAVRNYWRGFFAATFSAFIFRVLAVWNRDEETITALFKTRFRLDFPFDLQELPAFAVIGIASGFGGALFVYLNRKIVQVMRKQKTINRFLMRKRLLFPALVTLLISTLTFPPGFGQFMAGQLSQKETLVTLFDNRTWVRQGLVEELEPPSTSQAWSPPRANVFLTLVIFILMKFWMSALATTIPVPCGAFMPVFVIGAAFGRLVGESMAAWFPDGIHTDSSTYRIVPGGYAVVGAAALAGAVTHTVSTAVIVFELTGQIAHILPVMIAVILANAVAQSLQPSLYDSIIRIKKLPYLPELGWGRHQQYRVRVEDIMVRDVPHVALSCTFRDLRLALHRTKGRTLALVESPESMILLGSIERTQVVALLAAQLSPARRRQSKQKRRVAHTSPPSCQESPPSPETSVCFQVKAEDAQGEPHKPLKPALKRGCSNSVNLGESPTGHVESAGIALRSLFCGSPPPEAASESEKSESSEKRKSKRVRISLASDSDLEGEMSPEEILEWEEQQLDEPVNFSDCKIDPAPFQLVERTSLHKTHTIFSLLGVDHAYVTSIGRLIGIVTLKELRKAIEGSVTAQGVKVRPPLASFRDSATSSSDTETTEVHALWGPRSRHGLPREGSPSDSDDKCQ

ClC-1 = assay: cell-based or functional assay
rabbit ClC-2 [2] = target: T1, rabbit ClC-2; assay: dose-response of inhibition of ClC-2 window current, inside-out multi-channel patches, synthetic toxin backfilled in the pipette, VM=-100 mV (FIG. 3B)

With VSCEDCPDHCSTQKARAKCDNDKCVCEPI (disulfide (positions not given here), also called Leiuropeptide II; LPII) [GaTx2] the “latency to first opening upon stepping from VM 0 to -100 mV, 20 pM GaTx2” value (rabbit ClC-2 [1]) was 7.67 fold increase, the “ClC-1 tail currents at VM=-120 mV from +60 mV, 10 nM GaTx2 against after washout of toxin” value (ClC-1) was 1.04 fold and the Kd (rabbit ClC-2 [2]) was 0.012 nM.
